Tests used:
[1] = biological target: transmembrane truncated VP24 (residues 28-208) (White spot syndrome virus (WSSV)); assay: crystal structure; X-ray, SAD phasing, 2.4 Å, space group I 2(1) 3; trimer by the crystallographic three-fold axis; 0.1 M Tris-HCl pH 8.5, 2.75 M ammonium acetate, 10 mM ATP as additive, 16 °C
[2] = biological target: transmembrane truncated VP24 (residues 28-208) (White spot syndrome virus (WSSV)); assay: cross-linking; purified VP24 in PBS (around 0.6 mg/ml in 40 ul) with rising glutaraldehyde, room temperature, 4 h; 15% SDS-PAGE, Coomassie blue

## transmembrane truncated VP24 (residues 28-208) (domain or fragment)
[1]
  stoichiometry N: 3
[2]
  stoichiometry N: 3
